From the supplement of paper PMC9170038 come the findings set out here.

This data set deals with MS2 coat protein. The experiment in a line: apparent KD of MS2 coat protein; designed switch direction (-1 OFF switch, 1 ON switch): 1; higher = weaker reporter binding. The method, boiled down: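 Three titration conditions were used: no input, 200 uM small-molecule ligand, and an oligonucleotide input. In each, SNAP-549-labelled MS2 coat protein was raised from 0.7 or 1.5 nM, doubling, to 3 µM over designed RNA switches transcribed on Illumina chips by stalled E. coli RNA polymerase. Curve fits of normalised cluster fluorescence gave values whose per-design median over clusters is the apparent KD.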

The mark [1] stands for this setting: input ligand: microRNA oligo, concentration not stated.
[2] abbreviates: Eterna round: R95, input ligand: FMN 200 uM.
[3] abbreviates: Eterna round: R95, input ligand: microRNA oligo, concentration not stated.
[4] abbreviates: Eterna round: R95, input ligand: none.

Regarding “UGAGCCGGCACUGAGGAUAUUCAUAAUAAAACAUGAGGAUCACCCAUGUAGGCCAGAAGGCCUUGGGAGAAGGCAGGUCGGCUCA [Mat - Same State 2 - Mod of UCT - D71] (Eterna round: R96, puzzle: Same State 2)”, the “apparent KD of MS2 coat protein” value (input ligand: FMN 200 uM) was 15.7 nM, the “apparent KD of MS2 coat protein” value under setting [1] amounted to 147 nM and the “apparent KD of MS2 coat protein” value (input ligand: none) stood at 191 nM.

As for “GUGAAGAAUUAAGGAUAUCGAGUCAAGAUGUUAAACAUGAGGAUCACCCAUGUGGGUUGCGGUAUCGAGAAGGUAAAUUACAAG [salish99_SSNG2_r04_501] (Eterna round: R96, puzzle: Same State NG 2)”, the “apparent KD of MS2 coat protein” value by setting is: (input ligand: FMN 200 uM) 26.7 nM; under setting [1], 25.9 nM; (input ligand: none) 31.4 nM.

Take “GCCGGACCGGAAGGAUAUGUUCCCGGUGCAGCGGGAGACAUGAGGAUCACCCAUGUACUAUAACGACAGAAGGUCCAACCAGCG [Eternabot solution 21] (Eterna round: R96, puzzle: Same State NG 2)”: the “apparent KD of MS2 coat protein” value reads like this: (input ligand: FMN 200 uM) 18.7 nM; under setting [1], 16.4 nM; (input ligand: none) 22.5 nM.

Regarding “AGAGGAGGCGCAGGAUAUACGACGGAGGACGUGGUAGAAGGGUGCAUGCGAAAACAUGAGGAUCACCCAUGUACCGCGCGACGA [ssng1 c] (Eterna round: R96, puzzle: Same State NG 1)”, the “apparent KD of MS2 coat protein” value reads like this: (input ligand: FMN 200 uM) 816 nM; under setting [1], 30.1 nM; (input ligand: none) 126 nM.

Turning to “GCAGGACAUGAGGAUCACCCAUGUCUCAAAUAUUGAGGAUAUGGACACGGUAUAUCCGAACCAGAAGGCAACCUGC [SS1 Teenbexe 20] (Eterna round: R96, puzzle: Same State 1)”, the “apparent KD of MS2 coat protein” value turned out to be 38.9 nM (input ligand: FMN 200 uM), 31.5 nM under setting [1] and 43.7 nM (input ligand: none).

With “CUGAGCGAUCUAGGAUAUCACGUCGAUUAGACGUGAGAAGGAGAUCAUAACAUGAGGAUCACCCAUGUAUUACAUGAAGCUCAG [SSNG1/6-A2] (Eterna round: R96, puzzle: Same State NG 1)”, the “apparent KD of MS2 coat protein” value reads like this: (input ligand: FMN 200 uM) 17.6 nM; under setting [1], 9.15 nM; (input ligand: none) 19.6 nM.

On to “AAAAAACAUGAGGAUCACCCAUGUGAAAAUAUGGGAGGAUAUACAAACACGAAAGUGAAAGUAGAAGGCCUAAAAA [SS! MT 16] (Eterna round: R96, puzzle: Same State 1)”, for which the “apparent KD of MS2 coat protein” value was found to be 17.2 nM (input ligand: FMN 200 uM), 95.4 nM under setting [1] and 127 nM (input ligand: none).

For the sequence “GCCGGCUGAUGAGGAUAUGGCACCUUAUUGGUGCCAGAAGGCAUGUCAAUUGACAUGAGGAUCACCCAUGUAUUAUAGUUGGCG [salish99_SSNG1_r04_604] (Eterna round: R96, puzzle: Same State NG 1)”, the “apparent KD of MS2 coat protein” value was found to be 117 nM (input ligand: FMN 200 uM), 233 nM under setting [1] and 326 nM (input ligand: none).

For “CAGCGCUGCCGGGAGGAUAUGCGGUGAUGGACAUGAGGAUCACCCAUGUUAGCGGUAGCAUUACGGCAGAAGGCCCUGCAGCUGC [Soteed Omei mod 1] (puzzle: Same State 2)”, the “apparent KD of MS2 coat protein” value runs as follows: under setting [2], 10.9 nM; under setting [3], 12.3 nM; under setting [4], 12.3 nM.

Turning to “UUGGUUGUCGUAGGAUAUGUAGGAUAUUCCUACAUGAGGAUCACCCAUGUUCGCAUGGAAGAAGGACAGAAGGACGAUGACCAU [pwkr ssNG2 2FMN + 1F5.20] (Eterna round: R96, puzzle: Same State NG 2)”, the “apparent KD of MS2 coat protein” value runs as follows: (input ligand: FMN 200 uM) 16.8 nM; under setting [1], 904 nM; (input ligand: none) 836 nM.

As to “AUAAAACAUGAGGAUCACCCAUGUCAACAAAGUCGAGGAUAUUGGCAAAUAAAAUAAGAACCAGAAGGCGAAUAAU [salish99_ss1_r3_050] (puzzle: Same State 1)”, the “apparent KD of MS2 coat protein” value under setting [2] amounted to 17.5 nM, the “apparent KD of MS2 coat protein” value under setting [3] worked out at 23.1 nM and the “apparent KD of MS2 coat protein” value under setting [4] came out at 23.4 nM.

Consider “UGUUGUAUUACAGGAUAUCUAGUAUUUUUAUAUAGAGAAGGGUAUUCACAUGAGGAUCACCCAUGUAUAUACGAGGAAGUUGUG [JMF's solution 51] (Eterna round: R96, puzzle: Same State NG 1)”, for which the “apparent KD of MS2 coat protein” value under setting [1] was 23 nM.

Turning to “UGUACCUUCACAGGAUAUCAUGCGAAAAUUGCGUGAGAAGGGUGAAUACUGUCUUUCUAAGAGUACAUGAGGAUCACCCAUGUA [SameState NG1 #60] (Eterna round: R96, puzzle: Same State NG 1)”, the “apparent KD of MS2 coat protein” value was 50 nM (input ligand: FMN 200 uM), 56.1 nM under setting [1] and 73.8 nM (input ligand: none).

With “GGAGGAUUCGCAGGAUAUUCCUGAACACUGUAGGAAGAAGGGUGACGUAUCAGCACCAAGUGACAUGAGGAUCACCCAUGUUAA [Eternabot solution 24] (Eterna round: R96, puzzle: Same State NG 1)”, the “apparent KD of MS2 coat protein” value (input ligand: FMN 200 uM) is 137 nM, the “apparent KD of MS2 coat protein” value under setting [1] stood at 93.7 nM and the “apparent KD of MS2 coat protein” value (input ligand: none) was determined as 114 nM.

With “UUAAUAAUGAUAGGAUAUACAUGAGGAAUUCUCGUAGAAGGAUCAUGACAUGAGGAUCACCCAUGUAUCGCUCGAUAGAGCGUA [Mat - Same State NG 1 - JL mod - D35] (Eterna round: R96, puzzle: Same State NG 1)”, the “apparent KD of MS2 coat protein” value (input ligand: FMN 200 uM) stood at 447 nM, the “apparent KD of MS2 coat protein” value under setting [1] was determined as 149 nM and the “apparent KD of MS2 coat protein” value (input ligand: none) was 326 nM.

Consider “UAGUGCAUUAGAGGAUAUUCUUACGACACGAGUAAGACAUGAGGAUCACCCAUGUUGUGGCAUGGGAAGAAGGCUGAUGUGCUA [Omei SS(NG)2 Bv9] (Eterna round: R96, puzzle: Same State NG 2)”, for which, under setting [1], the “apparent KD of MS2 coat protein” value came out at 45.3 nM.

Turning to “GAGGGACAGACCAACAUGAGGAUCACCCAUGUCCUCGCAGGUCAGGAUAUCAUGAGGAUCACCCAUGAGAAGGGACGGUGAACC (Eterna round: R96, puzzle: Same State NG 3)”, the “apparent KD of MS2 coat protein” value was found to be 155 nM (input ligand: FMN 200 uM), 125 nM under setting [1] and 149 nM (input ligand: none).

As for “AAACAUGAGCGAGGAUAUACGGAGGAUCACCCUGUAGAAGGCGCAUGUAAAACAACAUGAGGAUCACCCAUGUCAUGUACAUGA (Eterna round: R96, puzzle: Same State NG 1)”, the “apparent KD of MS2 coat protein” value turned out to be 24.8 nM (input ligand: FMN 200 uM), 23.4 nM under setting [1] and 33.6 nM (input ligand: none).

As for “ACCCAAAGUAUAUGGGAGCAAGCUUUUUAACAUGAGGAUCACCCAUGUACUCGUCUUAUAAGCAGUCGAAAGACUGC [Sensor 100 - 4] (Eterna round: R96, puzzle: Sensor for hsa-mir-208a)”, the “apparent KD of MS2 coat protein” value (input ligand: FMN 200 uM) came to 873 nM, the “apparent KD of MS2 coat protein” value under setting [1] came out at 13.8 nM and the “apparent KD of MS2 coat protein” value (input ligand: none) was found to be 940 nM.

Take “AAAAUAAAUGCGAAAAUUAACCGCAACUGACAUGAGGAUCACCCAUGUGCUUCAAGCUCAGGCAUCUCUUAUCGUCA [Maares] (Eterna round: R96, puzzle: Sensor for hsa-mir-208a)”: the “apparent KD of MS2 coat protein” value by setting is: (input ligand: FMN 200 uM) 112 nM; under setting [1], 67.9 nM; (input ligand: none) 105 nM.
